Data from the RNAGym collection of RNA variant scans (doi:10.7554/elife.80360).

B1: Twister Ribozyme (parent)
chain: AACACUGCCAAUGCCGGUCCCAAGCCCGGAUAAAAGUGGAGGGGGCGG

Variants of: B1
Experiment: self-cleavage, relative activity (ratio to wild type); higher = more cleavage; co-transcriptional

Variant	self-cleavage
AAAACUGCCAAUUCCGGUCCCAAGCCCGGAUAAAAGUGGAGGGGGCGG [C3A G13U]	0.127
AAAACUGCCAAUACCGGUCCCAAGCCCGGAUAAAAGUGGAGGGGGCGG [C3A G13A]	0.207
AAAACUGCCAAUGCCGGUCCCAAGCCCGGAUAAAAGUGGAGGGGGUGG [C3A C46U]	0.244
AAAACUGCCAAUGCCGGUCCCAAGCCCGGAUAAAAGUGGAGGGGGGGG [C3A C46G]	0.117
AAAACUGCCAAUGCCGGUCCCAAGCCCGGAUAAAAGUGGAGGGGGAGG [C3A C46A]	0.2
AAGAUUGCCAAUGCCGGUCCCAAGCCCGGAUAAAAGUGGAGGGGGCGG [C3G C5U]	0.309
AAGAAUGCCAAUGCCGGUCCCAAGCCCGGAUAAAAGUGGAGGGGGCGG [C3G C5A]	0.117
AAGAGUGCCAAUGCCGGUCCCAAGCCCGGAUAAAAGUGGAGGGGGCGG [C3G C5G]	0.101
AAAACUGCCAAUGCCGGUCCCAAGCCCGGAUGAAAGUGGAGGGGGCGG [C3A A32G]	0.0493
AAAACUGCCAAUGCCGGUCCCAAGCCCGGAUUAAAGUGGAGGGGGCGG [C3A A32U]	0.278
AAAACUGCCAAUGCCGGUCCCAAGCCCGGAUCAAAGUGGAGGGGGCGG [C3A A32C]	0.188
AAGACUGCGAAUGCCGGUCCCAAGCCCGGAUAAAAGUGGAGGGGGCGG [C3G C9G]	0.139
AAGACUGCAAAUGCCGGUCCCAAGCCCGGAUAAAAGUGGAGGGGGCGG [C3G C9A]	0.0934
AAAACUGCCAAUGCCGGUCCCAAGCCCGGAUAAAAGUGGAGUGGGCGG [C3A G42U]	0.0908
AAAACUCCCAAUGCCGGUCCCAAGCCCGGAUAAAAGUGGAGGGGGCGG [C3A G7C]	0.0682
AAGACUGCCAAUGCCGGUCCCAAGCCCGGAUAAAAGUGAAGGGGGCGG [C3G G39A]	0.0984
AAGACUGCCAAUGCCGGUCCCAAGCCCGGAUAAAAGUGCAGGGGGCGG [C3G G39C]	0.0914
AAAACUGCCAAUGCCGGUCCCAAGCCCGGAUAAAAGUGGAGGGGGCGC [C3A G48C]	0.251
AAGACUGCCAAUGACGGUCCCAAGCCCGGAUAAAAGUGGAGGGGGCGG [C3G C14A]	0.418
AAGACUGCCAAUGGCGGUCCCAAGCCCGGAUAAAAGUGGAGGGGGCGG [C3G C14G]	0.0805
AAGACUGCCAAUGUCGGUCCCAAGCCCGGAUAAAAGUGGAGGGGGCGG [C3G C14U]	0.47
AAAACUGCCAAUGCCGGGCCCAAGCCCGGAUAAAAGUGGAGGGGGCGG [C3A U18G]	0.0709

Variant	self-cleavage
AAAACUGCCAAUGCCGGCCCCAAGCCCGGAUAAAAGUGGAGGGGGCGG [C3A U18C]	0.0738
AAAACUGCCAAUGCCGGACCCAAGCCCGGAUAAAAGUGGAGGGGGCGG [C3A U18A]	0.0528
AAGACUGCCAAUGCCGGUCACAAGCCCGGAUAAAAGUGGAGGGGGCGG [C3G C20A]	0.0892
AAGACUGCCAAUGCCGGUCCCAAGACCGGAUAAAAGUGGAGGGGGCGG [C3G C25A]	0.0782
AAAACUGCCAAUGCCGGUCCCAAGCCCGGAUAAACGUGGAGGGGGCGG [C3A A35C]	0.315
AAAACUGCCAAUGCCGGUCCCAAGCCCGGAUAAAUGUGGAGGGGGCGG [C3A A35U]	0.16
AAGACUGCCAAUGCCGGUCCCAAGCCCGGAUAAAAGUGGAGGGGGUGG [C3G C46U]	0.583
AAGACUGCCAAUGCCGGUCCCAAGCCCGGAUAAAAGUGGAGGGGGGGG [C3G C46G]	0.568
AAGACUGCCAAUGCCGGUCCCAAGCCCGGAUAAAAGUGGAGGGGGAGG [C3G C46A]	0.624
AAAACUGCUAAUGCCGGUCCCAAGCCCGGAUAAAAGUGGAGGGGGCGG [C3A C9U]	0.0898
AAGACUACCAAUGCCGGUCCCAAGCCCGGAUAAAAGUGGAGGGGGCGG [C3G G7A]	0.0769
AAGACUCCCAAUGCCGGUCCCAAGCCCGGAUAAAAGUGGAGGGGGCGG [C3G G7C]	0.0501
AAGUCUGCCAAUGCCGGUCCCAAGCCCGGAUAAAAGUGGAGGGGGCGG [C3G A4U]	0.13
AAGCCUGCCAAUGCCGGUCCCAAGCCCGGAUAAAAGUGGAGGGGGCGG [C3G A4C]	0.114
AAGGCUGCCAAUGCCGGUCCCAAGCCCGGAUAAAAGUGGAGGGGGCGG [C3G A4G]	0.462
AAGACUGCCAAUGCCGGUCCCCAGCCCGGAUAAAAGUGGAGGGGGCGG [C3G A22C]	0.481
AAGACUGCCAAUGCCGGUCCCGAGCCCGGAUAAAAGUGGAGGGGGCGG [C3G A22G]	0.124
AAAACUGCCAAUGCCGGUCCCAAGCCCGGAUAAAAGUGGAGGAGGCGG [C3A G43A]	0.0599
AAGACUGCCAAUGCCGGUACCAAGCCCGGAUAAAAGUGGAGGGGGCGG [C3G C19A]	0.0808
AAAACUGCCAAUGCCGGUCCCAAGCCCGCAUAAAAGUGGAGGGGGCGG [C3A G29C]	0.184
AAAACUGCCAAUGCCGGUCCCAAGCCCGGAUAAAAGUGGACGGGGCGG [C3A G41C]	0.07
AAAACUGCCAAUGCCGGUCCCAACCCCGGAUAAAAGUGGAGGGGGCGG [C3A G24C]	0.0654

Variant	self-cleavage
AAAAAUGCCAAUGCCGGUCCCAAGCCCGGAUAAAAGUGGAGGGGGCGG [C3A C5A]	0.0993
AAAAGUGCCAAUGCCGGUCCCAAGCCCGGAUAAAAGUGGAGGGGGCGG [C3A C5G]	0.265
AAAAUUGCCAAUGCCGGUCCCAAGCCCGGAUAAAAGUGGAGGGGGCGG [C3A C5U]	0.159
AAGACUGCCAAUGCCGGUCCCAAGCCCGGCUAAAAGUGGAGGGGGCGG [C3G A30C]	0.167
AAGACUGCCAAUGCCGGUCCCAAGCCCGGAUAUAAGUGGAGGGGGCGG [C3G A33U]	0.526
AAAACUGCCAAUGCCGGUCCCAAGCCCGGAUAAAAGUGAAGGGGGCGG [C3A G39A]	0.0266
AAAACUGCCAAUGCCGGUCCCAAGCCCGGAUAAAAGUGUAGGGGGCGG [C3A G39U]	0.0737
AAGACUGACAAUGCCGGUCCCAAGCCCGGAUAAAAGUGGAGGGGGCGG [C3G C8A]	0.174
AAAACUGCCAAUGCCGGUCCCAAGCCCGGAUAAAAGUGGAGGGCGCGG [C3A G44C]	0.207
AAAACUGCCAAUGCCGGUCCCAAGCCCGGAUAAAAGUGGAGGGUGCGG [C3A G44U]	0.253
AAAACUGCCAAUGCCGGUCGCAAGCCCGGAUAAAAGUGGAGGGGGCGG [C3A C20G]	0.0637
AAAACUGCCAAUGCCGGUCACAAGCCCGGAUAAAAGUGGAGGGGGCGG [C3A C20A]	0.0829
AAAACUGCCAAUGCCGGUCCCAAGCCCGGAUAAAAGUCGAGGGGGCGG [C3A G38C]	0.297
AAGACUGCCAAUGCCGGUCCCAAGCCCGGAUAAAACUGGAGGGGGCGG [C3G G36C]	0.0943
AAAACUGCCAAUGCCGGUCCCAAGGCCGGAUAAAAGUGGAGGGGGCGG [C3A C25G]	0.12
AAAACUGCCAAUGCCGGUCCCAAGACCGGAUAAAAGUGGAGGGGGCGG [C3A C25A]	0.0581
AAAACGGCCAAUGCCGGUCCCAAGCCCGGAUAAAAGUGGAGGGGGCGG [C3A U6G]	0.121
AAAACCGCCAAUGCCGGUCCCAAGCCCGGAUAAAAGUGGAGGGGGCGG [C3A U6C]	0.0414
AAAACUGCCAAUGCCGGUCCCAAGCCCGGAUAAAAGUGGAGGGGGCUG [C3A G47U]	0.229
AAAACUGCCAAUGCCGGUCCCAAGCCCGGAUAAAAGUGGAGGGGGCAG [C3A G47A]	0.245
AAGACUGCCAAUGCCGGUCCCAAGCCCGAAUAAAAGUGGAGGGGGCGG [C3G G29A]	0.348
AAGACUGCCAAUGCCGGUCCCAAUCCCGGAUAAAAGUGGAGGGGGCGG [C3G G24U]	0.0918

Variant	self-cleavage
AAGACUGCCAAUGCCGGUCCCAAACCCGGAUAAAAGUGGAGGGGGCGG [C3G G24A]	0.0502
AAGACUGCCAAUGCCGGUCCCAAGCCCGGAUAAAGGUGGAGGGGGCGG [C3G A35G]	0.317
AAGACUGCCAAUGCCGGUCCCAAGCCCGGAUAAAUGUGGAGGGGGCGG [C3G A35U]	0.488
AAGACUGCCAAUGCCGAUCCCAAGCCCGGAUAAAAGUGGAGGGGGCGG [C3G G17A]	0.213
AAGACUGCCAAUGCCGGUCCCAAGCCCGGAUCAAAGUGGAGGGGGCGG [C3G A32C]	0.379
AAGACUGCCAAUGCCGGUCCCAAGCCCGGAUUAAAGUGGAGGGGGCGG [C3G A32U]	0.593
AAGACUGCCAAUGCCGGUCCCAAGCCCGGAUAAAAGUCGAGGGGGCGG [C3G G38C]	0.449
AAGACUGCCAAUGCCGGUCCCAAGCCCGGAUAAAAGUAGAGGGGGCGG [C3G G38A]	0.559
AAGACUGCCAAUGCCGGUCCCAAGCCCGGAUAAAAGUUGAGGGGGCGG [C3G G38U]	0.607
AAAACUGCCAAUGCUGGUCCCAAGCCCGGAUAAAAGUGGAGGGGGCGG [C3A C15U]	0.108
AAAACUGCCAAUGCGGGUCCCAAGCCCGGAUAAAAGUGGAGGGGGCGG [C3A C15G]	0.0656
AAAACUGCCAAUGCAGGUCCCAAGCCCGGAUAAAAGUGGAGGGGGCGG [C3A C15A]	0.101
AAAACUGCCAAUGCCGUUCCCAAGCCCGGAUAAAAGUGGAGGGGGCGG [C3A G17U]	0.0649
AAAACUGCCAAUGCCGCUCCCAAGCCCGGAUAAAAGUGGAGGGGGCGG [C3A G17C]	0.0654
AAGACUGCCAAUGCCGGUCCCAAGCGCGGAUAAAAGUGGAGGGGGCGG [C3G C26G]	0.0704
AAAACUGCCAAUGCCGGUCCCAAGCCCGGAUAGAAGUGGAGGGGGCGG [C3A A33G]	0.0867
AAAACUGCCAAUGCCGGUCCCAAGCCCGGAUAAUAGUGGAGGGGGCGG [C3A A34U]	0.252
AAAACUGCCAAUGCCGGUCCCAAGCCCGGAUAAGAGUGGAGGGGGCGG [C3A A34G]	0.1
AAAACUGCCAAUGCCGGUCCAAAGCCCGGAUAAAAGUGGAGGGGGCGG [C3A C21A]	0.0913
AAGACUGCCAUUGCCGGUCCCAAGCCCGGAUAAAAGUGGAGGGGGCGG [C3G A11U]	0.762
AAAACUGCCAAUGCCUGUCCCAAGCCCGGAUAAAAGUGGAGGGGGCGG [C3A G16U]	0.141
AAAACUGCCAAUGCCGGUCCCAAGCCCGGAUAAAAGUGGAGGGGCCGG [C3A G45C]	0.0823

Variant	self-cleavage
AAAACUGCCAAUGCCGGUCCCAAGCCCGGAUAAAAGUGGAGGGGUCGG [C3A G45U]	0.152
AAGACUGCCGAUGCCGGUCCCAAGCCCGGAUAAAAGUGGAGGGGGCGG [C3G A10G]	0.872
AAGACUGCCAAUGCCGGUCCGAAGCCCGGAUAAAAGUGGAGGGGGCGG [C3G C21G]	0.0504
AAGACUGCCAAUGCCGGUCCUAAGCCCGGAUAAAAGUGGAGGGGGCGG [C3G C21U]	0.0445
AAAACUGCCAAUGGCGGUCCCAAGCCCGGAUAAAAGUGGAGGGGGCGG [C3A C14G]	0.0567
AAAACUGCCAAUGCCGGUCCCAAGCCCGGAUAAAAGUGGCGGGGGCGG [C3A A40C]	0.0582
AAGACUGCCAAUACCGGUCCCAAGCCCGGAUAAAAGUGGAGGGGGCGG [C3G G13A]	0.138
AAGACUGCCAAUCCCGGUCCCAAGCCCGGAUAAAAGUGGAGGGGGCGG [C3G G13C]	0.124
AAAACUGCCAAAGCCGGUCCCAAGCCCGGAUAAAAGUGGAGGGGGCGG [C3A U12A]	0.0973
AAAACUGCCAAGGCCGGUCCCAAGCCCGGAUAAAAGUGGAGGGGGCGG [C3A U12G]	0.159
AAAACUGCCAAUGCCGGUCCCAAGCCCAGAUAAAAGUGGAGGGGGCGG [C3A G28A]	0.183
AAAACUGCCAAUGCCGGUCCCAAGCCCUGAUAAAAGUGGAGGGGGCGG [C3A G28U]	0.144
AAAACUGCCAAUGCCGGUCCCAAGCUCGGAUAAAAGUGGAGGGGGCGG [C3A C26U]	0.132
AAAACUGCCAAUGCCGGUCCCAAGCCAGGAUAAAAGUGGAGGGGGCGG [C3A C27A]	0.148
AAAACUGCCAAUGCCGGUCCCAAGCCUGGAUAAAAGUGGAGGGGGCGG [C3A C27U]	0.183
AAGACUGCCAAUGCCGGUCCCAAGCCAGGAUAAAAGUGGAGGGGGCGG [C3G C27A]	0.0737
AAAACUGCCAAUGCCGGUGCCAAGCCCGGAUAAAAGUGGAGGGGGCGG [C3A C19G]	0.0471
AAAACUGCCAAUGCCGGUCCCAAGCCCGGAUAAAAGGGGAGGGGGCGG [C3A U37G]	0.17
AAGACUGCCAAUGCCGGUCCCAAGCCCGGAUAAAAGUGGCGGGGGCGG [C3G A40C]	0.12
AAGACUGCCAAUGCCGGUCCCAAGCCCGGAUAAAAGUGGUGGGGGCGG [C3G A40U]	0.113
